Measured values: patent US9493781B2, “Synthetic brassica-derived chloroplast transit peptides” (DOW AGROSCIENCES LLC, priority 2012, dated 2016)

Assays:
YFP protein = assay: Western blot of infiltrated tobacco leaves (YFP expression, transit peptide processing); parameters: species or system Nicotiana benthamiana; conditions: infiltrated tobacco leaf tissue
Procedure: Samples of the infiltrated tobacco plants were assayed via Western blotting. Leaf punches were collected and subjected to bead-milling. About 100-200 mg of leaf material was mixed with 2 BBs (steel balls) (Daisy; Rogers, Ark.) and […] of PBST for 3 minutes in a Kleco™ bead mill. The samples were then spun down in a centrifuge at 14,000×g at 4° C. The supernatant was removed and either analyzed directly via Western blot or immunoprecipitated. The immunoprecipitations were performed using the Pierce Direct IP Kit™ (Thermo Scientific; Rockford, Ill.) following the manufacturer's protocol. Approximately, 50 μg of anti-YFP was bound to the resin. The samples were incubated with the resin overnight at 4° C. Next, the samples were washed and eluted the following morning and prepped for analysis by combining equal volumes of 2×8M Urea sample buffer and then boiling the samples for 5 minutes. The boiled samples were run on a 4-12% SDS-Bis Tris gel in MOPS buffer for 40 minutes. The gel was then blotted using the Invitrogen iBlot™ (Life Technologies; Carlsbad, Calif.) following the manufacturer's protocol. The blotted membrane was blocked for 10 minutes using 5% non-fat dry milk in PBS-Tween solution. The membrane was probed with the primary antibody (monoclonal anti-GFP in rabbit) used at a 1:1000 dilution in the 5% non-fat dry milk in PBS-Tween solution for 1 hour. […]

[1] = test system: chloroplasts of tobacco cells; assay: Tobacco transient assay: confocal microscopy of TraP-YFP localization; type: cell-based, Nicotiana benthamiana; conditions: Agrobacterium-infiltrated tobacco leaves
Excerpt: The Trap8 and TraP9 chimeric chloroplast transit peptide sequences were initially tested via a transient in planta assay. Polynucleotide sequences which encode the Trap8 (SEQ ID NO:5) and TraP9 (SEQ ID NO:6) chimeric chloroplast transit peptide sequences were synthesized. A linker sequence (SEQ ID NO:7) was incorporated between the TraP sequence and the yfp coding sequence. The resulting constructs contained two plant transcription units (PTU). The first PTU was comprised of the Arabidopsis thaliana Ubiquitin 10 promoter (AtUbi10 promoter; Callis, et al., (1990) J. Biol. Chem., 265: 12486-12493), TraP-yellow fluorescent protein fusion gene (TraP-YFP; US Patent App. 2007/0298412), and Agrobacterium tumefaciens ORF 23 3′ untranslated region (AtuORF23 3′UTR; U.S. Pat. No. 5,428,147). […]
Agrobacterium-infiltrated tobacco leaves were severed from the plant, and placed into a petri-dish with water to prevent dehydration. The infiltrated tobacco leaves were observed under blue light excitation with long-pass filter glasses held in place using a Dark Reader Hand Lamp™ (Clare Chemical Research Co.; Dolores, Colo.) to identify undamaged areas of the leaf that were successfully expressing the YFP reporter proteins. […]

Arabidopsis [2] = assay: dgt-31, dgt-32, dgt-33 v1 transformed T1 Arabidopsis response to glyphosate, % visual injury 2 WAT; type: in vivo, Arabidopsis thaliana
Procedure: Selection of transformed plants. Freshly harvested T1 seed [dgt-31, dgt-32, and dgt-33 v1 gene] were allowed to dry at room temperature and shipped to Indianapolis for testing. T1 seed was sown in 26.5×51-cm germination trays (T.O. Plastics Inc., Clearwater, Minn.), each receiving a 200 mg aliquots of stratified T1 seed (˜10,000 seed) that had previously been suspended in 40 mL of 0.1% agarose solution and stored at 4° C. for 2 days to complete dormancy requirements and ensure synchronous seed germination.
Sunshine Mix LP5 (Sun Gro Horticulture Inc., Bellevue, Wash.) was covered with fine vermiculite and subirrigated with Hoagland's solution until wet, then allowed to gravity drain. Each 40 mL aliquot of stratified seed was sown evenly onto the vermiculite with a pipette and covered with humidity domes (KORD™ Products, Bramalea, Ontario, Canada) for 4-5 days. Domes were removed once plants had germinated prior to initial transformant selection using glufosinate postemergence spray (selecting for the co-transformed dsm-2 gene).
Six days after planting (DAP) and again 10 DAP, T1 plants (cotyledon and 2-4-lf stage, respectively) were sprayed with a 0.1% solution of IGNITE™ herbicide (280 g ai/L glufosinate, Bayer Crop Sciences, Kansas City, Mo.) at a spray volume of 10 mL/tray (703 L/ha) using a DeVilbiss™ compressed air spray tip to deliver an effective rate of 200 g ae/ha glufosinate per application. Survivors (plants actively growing) were identified 4-7 days after the final spraying. Surviving plants were transplanted individually into 3-inch pots prepared with potting media (Metro Mix 360™). Plants reared in the greenhouse at least 1 day prior to tissue sampling for copy number analyses.
T1 plants were sampled and copy number analysis for the dgt-31, dgt-32, and dgt-33 v1 gene were completed. T1 plants were then assigned to various rates of glyphosate so that a range of copies were among each rate. For Arabidopsis, 26.25 g ae/ha glyphosate is an effective dose to distinguish sensitive plants from ones with meaningful levels of resistance. Elevated rates were applied to determine relative levels of resistance (105, 420, 1680, or 3360 g ae/ha).
All glyphosate herbicide applications were made by track sprayer in a 187 L/ha spray volume. Glyphosate used was of the commercial Durango dimethylamine salt formulation (480 g ae/L, Dow AgroSciences, LLC).
T1 plants selected above were subsequently transplanted to individual pots and sprayed with various rates of commercial glyphosate. Table 16 compares the response of dgt-31, dgt-32, and dgt-33 v1 and control genes to impart glyphosate resistance to Arabidopsis T1 transformants. Response is presented in terms of % visual injury 2 WAT. […] An arithmetic mean and standard deviation is presented for each treatment. […]

Arabidopsis [3] = assay: dgt-28, dgt-32, dgt-33, dgt-3, dgt-7 transformed Arabidopsis (T1, T2, T3) response to postemergence glyphosate, % visual injury; type: in vivo, Arabidopsis thaliana; conditions: T1 Arabidopsis
Outline: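 Transgenic T1, T2 and T3 Arabidopsis (low-copy events for T2/T3, hemizygous and homozygous in T2) sprayed postemergence with glyphosate at 105, 420, 1,680 or 3,360 g ae/ha. Visual injury scored 2 weeks after treatment as mean, SD and range. Non-transformed Columbia served as sensitive control.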

[4] = with TraP8 and with TraP14 / TraP24 respectively

| Molecule | Glyphosate tolerance (Arabidopsis [3]) | Herbicide tolerance (Arabidopsis [2]; [4]) | also measured |
| --- | --- | --- | --- |
| TraP9: chimeric chloroplast transit peptide SEQ ID NO:4; N-terminus from Brassica rapa EPSPS CTP, C-terminus from Brassica napus (protein, TraP9 chimeric chloroplast transit peptide, N-terminus from Brassica rapa EPSPS CTP, C-terminus from Brassica napus) MAQASRICQNPCVISNLPKSNHRKSPFSVSLKTHQPRASSWGLKKSGTMLNGSVIRPVKVTASVS | – | – | Processing (cleavage) of transit peptide from YFP by Western blot (YFP protein): processed; Localization of YFP fluorescence in tobacco leaf cells [1]: accumulated within the chloroplasts |
| DGT-31 (v1): Streptomyces EPSP synthase enzyme (GENBANK YP_004922608.1) (protein, DGT-31 v3 nucleotide) MTVIDIPGSKSVTARALFLAAAADGTTTLLRPLHSDDTEGFTEGLTRLGYAVVREPDRWHIEGRPSGPAAADAEVHCRDGATTARFLPTLAAAAASGTYRFDASAQMRRRPLAPLTEALRTLGVDLRHDGAEGHHPLTIQASGVKGGGLTLDAGESSQYLTALLMLGPLTAEGLRIEVTELVSAPYVEITLAMMRGFGVEVVREGNTFTVPPGGYRATTYAIEPDASTASYFFAAAALTGREVTVPGLGTGALQGDLRFTEVLRRMDADVRTTSDSTTVRSDGRLAGLTVNMRDISDTMPTLAAIAPYASSPVRIEDVANTRVKECDRLEACAQNLRSMGITVRTGPDWIEIHPGTPRPTEIATHGDHRIVMSFAVAGLRTPGMSYDDPGCVRKTFPRFHEEFAAFVERSSAGE | – | – | Herbicide tolerance (Arabidopsis [2]; with transit peptide TraP8): improved tolerance; Herbicide tolerance (Arabidopsis [2]; with transit peptide TraP23, compared to the negative control): slight herbicide tolerance |
| DGT-32: Streptomyces EPSP synthase enzyme (GENBANK ZP_04696613) (protein, listed as Streptomyces roseosporus) MTVIEIPGSKSVTARALFLAAAADGTTTLLRPLRSDDTEGFAEGLRNLGYAVEQEADRWRVQGRPAGPAATEADVYCRDGATTARFLPTLAAAAASGTYRFDASAQMRRRPLAPLTRALTALGVDLRHEGADGHHPLTVRAAGIEGGELTLDAGESSQYLTALLMLGPLTTKGLRIEVTELVSAPYVEITLAMMRDFGVEVEREGNTFTVPSPSSRLRSNRGGPIGGYRATTYAVEPDASTASYFFAAAALTGREVTVPGLGTGALQGDLRFVDVLREMGAEVSVGPDATTVRSTGRLRGITVNMRDISDTMPTLAAIAPYADGPVVIEDVANTRVKECDRLEACAENLRAMGITVHTGPDRIEIHPGTPKPTGIATHGDHRIVMSFAVAGLRTPGLTYDDPGCVRKTFPRFHEVFADFAHDLEGR | significant tolerance to glyphosate | robust tolerance to glyphosate | – |
| DGT-33: Streptomyces EPSP synthase enzyme (GENBANK NC_010572) (protein, listed as Streptomyces griseus) MGAVTVIDIPGSKSVTARALFLAAAADGTTTLLRPLRSDDTEGFAEGLKNLGYAVEQEADRWRVEGRPDGPAAPDADVYCRDGATTARFLPTLVAAAASGTYRFDASAQMRRRPLAPLTRALTALGVDLRHGGEEGHHPLTVRAAGIEGGDVVLDAGESSQYLTALLMLGPLTAKGLRIEVTDLVSAPYVEITLAMMRDFGVDVSREGNTFTVPSGGYRATAYAVEPDASTASYFFAAAALTGREVTVPGLGIGALQGDLRFVDVLRDMGAEVSVGPDATTVRSTGRLRGITVTMRDISDTMPTLAAIAPHADGPVRIEDVANTRVKECDRLEACAQNLRAMGITVHTGHDWIEILPGTPKPTGIATHGDHRIVMSFAVAGLLTPGLTYDDPGCVRKTFPRFHEVFADFAASPQA | significant tolerance to glyphosate | robust tolerance to glyphosate | – |
